T1: human ORC1 (origin recognition complex subunit 1), full-length (human, UniProt Q13415 1-861)
T1 construct: Origin recognition complex subunit 1, human, full-length codon-optimized synthetic gene; No removal of the tag is described; HsORC1–5 was eluted from Streptactin beads with desthiobiotin; Samples for cryo-EM were mildly cross-linked with glutaraldehyde (GraFix); also called HsORC1; source: Sf21 insect cells, MultiBac baculovirus, co-overexpressed with the other ORC subunits; not shown: twin-strep …
T1 sequence (looked up): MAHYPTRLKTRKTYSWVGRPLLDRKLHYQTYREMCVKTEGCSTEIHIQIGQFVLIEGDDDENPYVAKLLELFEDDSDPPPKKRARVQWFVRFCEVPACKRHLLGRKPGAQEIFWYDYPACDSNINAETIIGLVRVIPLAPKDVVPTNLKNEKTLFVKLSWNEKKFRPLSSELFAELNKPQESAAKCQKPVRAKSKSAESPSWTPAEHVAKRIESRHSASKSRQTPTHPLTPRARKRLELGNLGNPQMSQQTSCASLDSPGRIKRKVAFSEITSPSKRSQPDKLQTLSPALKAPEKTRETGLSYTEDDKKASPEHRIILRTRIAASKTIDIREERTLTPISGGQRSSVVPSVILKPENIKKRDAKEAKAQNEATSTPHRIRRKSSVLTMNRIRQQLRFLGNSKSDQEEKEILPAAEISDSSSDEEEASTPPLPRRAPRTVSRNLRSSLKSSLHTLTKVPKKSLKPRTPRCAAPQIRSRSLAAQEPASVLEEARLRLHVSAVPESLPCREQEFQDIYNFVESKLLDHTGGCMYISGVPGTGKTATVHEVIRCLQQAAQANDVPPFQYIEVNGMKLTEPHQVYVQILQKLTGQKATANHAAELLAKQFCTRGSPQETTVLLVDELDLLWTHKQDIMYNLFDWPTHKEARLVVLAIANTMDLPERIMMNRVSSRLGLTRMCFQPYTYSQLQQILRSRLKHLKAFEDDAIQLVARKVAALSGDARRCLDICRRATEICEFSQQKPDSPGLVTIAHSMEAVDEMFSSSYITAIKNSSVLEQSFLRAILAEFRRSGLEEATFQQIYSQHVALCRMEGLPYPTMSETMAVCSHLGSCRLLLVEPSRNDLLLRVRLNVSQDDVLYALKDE


How the values were obtained:
[1] = molecular target: T1, human ORC1 (origin recognition complex …); assay: co-IP; anti-Flag immunoprecipitation (M2-flag affinity beads, eluted with 0.5 mg/mL flag peptide) of N-terminal Flag-tagged ORC2 from soluble lysate of insect cells co-overexpressing ORC1 to ORC6; lysis buffer A: 25 mM HEPES-KOH pH 7.6, 0.2 M KCl, 5 mM ATP, 10% glycerol, 0.05% NP-40; conditions: partners not purified
[2] = molecular target: T1, human ORC1 (origin recognition complex …); assay: cryo-EM structure; HsORC1–5 purified by two steps (anti-HA beads, Streptactin beads) after high-salt treatment, mild fixation by GraFix; map at 4.4 Å, State I 5.0 Å, State II 4.8 Å, four subgroups by local classification on ORC1-AAA+; conditions: both partners purified

Binder | binding result [1] | binding result [2]
human ORC2 (origin recognition complex subunit 2), full-length (natural protein, UniProt Q13416 1-577, looked up, Origin recognition complex subunit 2, human, full-length codon-optimized synthetic gene; Samples for cryo-EM were mildly cross-linked with glutaraldehyde (GraFix); also called HsORC2; source: Sf21 insect cells, MultiBac baculovirus, co-overexpressed with the other ORC subunits; anti-HA then Streptactin beads for HsORC1–5); not shown: 3x Flag, N-terminal, kept) MSKPELKEDKMLEVHFVGDDDVLNHILDREGGAKLKKERAQLLVNPKKIIKKPEYDLEEDDQEVLKDQNYVEIMGRDVQESLKNGSATGGGNKVYSFQNRKHSEKMAKLASELAKTPQKSVSFSLKNDPEITINVPQSSKGHSASDKVQPKNNDKSEFLSTAPRSLRKRLIVPRSHSDSESEYSASNSEDDEGVAQEHEEDTNAVIFSQKIQAQNRVVSAPVGKETPSKRMKRDKTSDLVEEYFEAHSSSKVLTSDRTLQKLKRAKLDQQTLRNLLSKVSPSFSAELKQLNQQYEKLFHKWMLQLHLGFNIVLYGLGSKRDLLERFRTTMLQDSIHVVINGFFPGISVKSVLNSITEEVLDHMGTFRSILDQLDWIVNKFKEDSSLELFLLIHNLDSQMLRGEKSQQIIGQLSSLHNIYLIASIDHLNAPLMWDHAKQSLFNWLWYETTTYSPYTEETSYENSLLVKQSGSLPLSSLTHVLRSLTPNARGIFRLLIKYQLDNQDNPSYIGLSFQDFYQQCREAFLVNSDLTLRAQLTEFRDHKLIRTKKGTDGVEYLLIPVDNGTLTDFLEKEEEEA | binds | –
human ORC4 (origin recognition complex subunit 4), full-length (natural protein, UniProt O43929 1-436, looked up, Origin recognition complex subunit 4, human, full-length codon-optimized synthetic gene; No tag is named for this subunit; Samples for cryo-EM were mildly cross-linked with glutaraldehyde (GraFix); also called HsORC4; source: Sf21 insect cells, MultiBac baculovirus, co-overexpressed with the other ORC subunits) MSSRKSKSNSLIHTECLSQVQRILRERFCRQSPHSNLFGVQVQYKHLSELLKRTALHGESNSVLIIGPRGSGKTMLINHALKELMEIEEVSENVLQVHLNGLLQINDKIALKEITRQLNLENVVGDKVFGSFAENLSFLLEALKKGDRTSSCPVIFILDEFDLFAHHKNQTLLYNLFDISQSAQTPIAVIGLTCRLDILELLEKRVKSRFSHRQIHLMNSFGFPQYVKIFKEQLSLPAEFPDKVFAEKWNENVQYLSEDRSVQEVLQKHFNISKNLRSLHMLLMLALNRVTASHPFMTAVDLMEASQLCSMDSKANIVHGLSVLEICLIIAMKHLNDIYEEEPFNFQMVYNEFQKFVQRKAHSVYNFEKPVVMKAFEHLQQLELIKPMERTSGNSQREYQLMKLLLDNTQIMNALQKYPNCPTDVRQWATSSLSWL | – | binds
human ORC5 (origin recognition complex subunit 5), full-length (natural protein, UniProt O43913 1-435, looked up, Origin recognition complex subunit 5, human, full-length codon-optimized synthetic gene; Samples for cryo-EM were mildly cross-linked with glutaraldehyde (GraFix); also called HsORC5; source: Sf21 insect cells, MultiBac baculovirus, co-overexpressed with the other ORC subunits; not shown: HA, C-terminal, kept) MPHLENVVLCRESQVSILQSLFGERHHFSFPSIFIYGHTASGKTYVTQTLLKTLELPHVFVNCVECFTLRLLLEQILNKLNHLSSSEDGCSTEITCETFNDFVRLFKQVTTAENLKDQTVYIVLDKAEYLRDMEANLLPGFLRLQELADRNVTVLFLSEIVWEKFRPNTGCFEPFVLYFPDYSIGNLQKILSHDHPPEYSADFYAAYINILLGVFYTVCRDLKELRHLAVLNFPKYCEPVVKGEASERDTRKLWRNIEPHLKKAMQTVYLREISSSQWEKLQKDDTDPGQLKGLSAHTHVELPYYSKFILIAAYLASYNPARTDKRFFLKHHGKIKKTNFLKKHEKTSNHLLGPKPFPLDRLLAILYSIVDSRVAPTANIFSQITSLVTLQLLTLVGHDDQLDGPKYKCTVSLDFIRAIARTVNFDIIKYLYDFL | – | binds
